# Laboratory results published in patent US11278600B2, “Human alpha-galactosidase variants” (Codexis, Inc., priority 2014, dated 2022).
# Numbering of substitutions follows the chain as printed.
# B1: 52 (protein)
# chain: LDNGLARTPTMGWLHWERFMCNLDCQEEPDSCISEKLFMEMAELMVSEGWKDAGYEYLCIDDCWMAPQRDSEGRLQADPQRFPHGIRQLANYVHSKGLKLGIYADVGNKTCAGFPGSFGYYDIDAQTFADWGVDLLKFDGCYCDSLENLADGYKHMSLALNRTGRSIVYSCEWPLYMWPFQKPNYTEIRQYCNHWRNFADIDDSWKSIKSILDWTSDNQERIVDVAGPGGWNDPDMLVIGNFGLSWNQQVTQMALWAIMAAPLFMSNDLRHISPQAKALLQDKDVIAINQDPLGKQGYQLRQGDNFEVWERPLSGLAWAVAMINRQEIGGPRSYTIAVASLGKGVACNPACFITQLLPVKRKLGFYEWTSRLRSHINPTGTVLLQLENTMQMSKDLLL
# modifications: Synthetic Polypeptide sequence of Variant No. 52 of mature Human GLA
# B2: 57 (protein)
# chain: B1 chain with D217F, F365K
# modifications: Synthetic Polypeptide sequence of Variant No. 57 of mature Human GLA
# B3: 67 (protein)
# chain: B1 chain with H155E, D217F
# modifications: Synthetic Polypeptide sequence of Variant No. 67 of mature Human GLA
# B4: 62 (protein)
# chain: B1 chain with D217F, G303Q, R373V
# modifications: Synthetic Polypeptide sequence of Variant No. 62 of mature Human GLA
# B5: 54 (protein)
# chain: B1 chain with D217F, F352I
# modifications: Synthetic Polypeptide sequence of Variant No. 54 of mature Human GLA
# B6: 59 (protein)
# chain: B1 chain with D217F, F365R
# modifications: Synthetic Polypeptide sequence of Variant No. 59 of mature Human GLA
# B7: 66 (protein)
# chain: B1 chain with H155T, D217F
# modifications: Synthetic Polypeptide sequence of Variant No. 66 of mature Human GLA
# B8: 55 (protein)
# chain: B1 chain with D217F, F352V, F365I
# modifications: Synthetic Polypeptide sequence of Variant No. 55 of mature Human GLA
# B9: 60 (protein)
# chain: B1 chain with D217F, F365T
# modifications: Synthetic Polypeptide sequence of Variant No. 60 of mature Human GLA
# B10: 56 (protein)
# chain: B1 chain with D217F, F365I
# modifications: Synthetic Polypeptide sequence of Variant No. 56 of mature Human GLA
# B11: 63 (protein)
# chain: B1 chain with H155A, D217F
# modifications: Synthetic Polypeptide sequence of Variant No. 63 of mature Human GLA
# B12: 58 (protein)
# chain: B1 chain with D217F, F365L
# modifications: Synthetic Polypeptide sequence of Variant No. 58 of mature Human GLA
# B13: 65 (protein)
# chain: B1 chain with H155R, D217F
# modifications: Synthetic Polypeptide sequence of Variant No. 65 of mature Human GLA
# B14: 53 (protein)
# chain: B1 chain with D217R
# modifications: Synthetic Polypeptide sequence of Variant No. 53 of mature Human GLA
# B15: 64 (protein)
# chain: B1 chain with H155L, D217F
# modifications: Synthetic Polypeptide sequence of Variant No. 64 of mature Human GLA
# B16: 61 (protein)
# chain: B1 chain with D217F, F365V
# modifications: Synthetic Polypeptide sequence of Variant No. 61 of mature Human GLA
# Test: HTP-analysis of yeast culture supernatants, no challenge (MUGal hydrolysis)
# Assay type: biochemical
# Conditions: activity of the variant/activity of WT GLA (SEQ ID NO: 5), yeast supernatant
# How it was run: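 GLA variants were expressed in INVSc1 yeast grown in SD-Ura broth with glucose at 30° C., and culture supernatants were collected after 66-84 h. Supernatant was mixed with McIlvaine buffer pH 4.8 and MUGal (2 mM stock) in 50 mM citrate, 200 mM KCl, pH 4.6, incubated at 37° C. for 30-180 minutes, then quenched with sodium carbonate.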
row,Molecule,Relative Activity of GLA Variants After No Challenge (NC)
1,B1,++ (++ = >1.5 to 2.5 relative activity over WT GLA (SEQ ID NO: 5))
2,B2,++ (++ = >1.5 to 2.5 relative activity over WT GLA (SEQ ID NO: 5))
3,B3,++ (++ = >1.5 to 2.5 relative activity over WT GLA (SEQ ID NO: 5))
4,B4,++ (++ = >1.5 to 2.5 relative activity over WT GLA (SEQ ID NO: 5))
5,B5,+ (+ = 0.5 to 1.5 relative activity over WT GLA (SEQ ID NO: 5))
6,B6,+ (+ = 0.5 to 1.5 relative activity over WT GLA (SEQ ID NO: 5))
7,B7,+ (+ = 0.5 to 1.5 relative activity over WT GLA (SEQ ID NO: 5))
8,B8,++ (++ = >1.5 to 2.5 relative activity over WT GLA (SEQ ID NO: 5))
9,B9,+ (+ = 0.5 to 1.5 relative activity over WT GLA (SEQ ID NO: 5))
10,B10,++ (++ = >1.5 to 2.5 relative activity over WT GLA (SEQ ID NO: 5))
11,B11,+ (+ = 0.5 to 1.5 relative activity over WT GLA (SEQ ID NO: 5))
12,B12,++ (++ = >1.5 to 2.5 relative activity over WT GLA (SEQ ID NO: 5))
13,B13,+ (+ = 0.5 to 1.5 relative activity over WT GLA (SEQ ID NO: 5))
14,B14,+ (+ = 0.5 to 1.5 relative activity over WT GLA (SEQ ID NO: 5))
15,B15,+ (+ = 0.5 to 1.5 relative activity over WT GLA (SEQ ID NO: 5))
16,B16,++ (++ = >1.5 to 2.5 relative activity over WT GLA (SEQ ID NO: 5))

# Test: HTP-analysis of supernatants pretreated with acid (MUGal hydrolysis)
# Assay type: biochemical
# Conditions: challenge at pH 4.2; activity of the variant/activity of WT GLA (SEQ ID NO: 5); yeast supernatant
# How it was run: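 Yeast INVSc1 supernatant, GLA variants; acid challenge: McIlvaine pH 3.3-4.3, 37° C., 1-3 h. Assay: MUGal in McIlvaine pH 4.8 plus citrate pH 4.3, 37° C., 30-180 min, Na2CO3 stop, Ex 355/Em 448 nm.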
row,Molecule,Relative Activity of GLA Variants After Challenge at pH 4.2
1,B1,+ (+ = 0.5 to 1.5 relative activity over WT GLA (SEQ ID NO: 5))
2,B2,++ (++ = >1.5 to 2.5 relative activity over WT GLA (SEQ ID NO: 5))
3,B3,+ (+ = 0.5 to 1.5 relative activity over WT GLA (SEQ ID NO: 5))
4,B4,+ (+ = 0.5 to 1.5 relative activity over WT GLA (SEQ ID NO: 5))
5,B5,+ (+ = 0.5 to 1.5 relative activity over WT GLA (SEQ ID NO: 5))
6,B6,+ (+ = 0.5 to 1.5 relative activity over WT GLA (SEQ ID NO: 5))
7,B7,+ (+ = 0.5 to 1.5 relative activity over WT GLA (SEQ ID NO: 5))
8,B8,+++ (+++ = >2.5 relative activity over WT GLA (SEQ ID NO: 5))
9,B9,+ (+ = 0.5 to 1.5 relative activity over WT GLA (SEQ ID NO: 5))
10,B10,++ (++ = >1.5 to 2.5 relative activity over WT GLA (SEQ ID NO: 5))
11,B11,+ (+ = 0.5 to 1.5 relative activity over WT GLA (SEQ ID NO: 5))
12,B12,++ (++ = >1.5 to 2.5 relative activity over WT GLA (SEQ ID NO: 5))
13,B13,+ (+ = 0.5 to 1.5 relative activity over WT GLA (SEQ ID NO: 5))
14,B14,++ (++ = >1.5 to 2.5 relative activity over WT GLA (SEQ ID NO: 5))
15,B15,+ (+ = 0.5 to 1.5 relative activity over WT GLA (SEQ ID NO: 5))
16,B16,++ (++ = >1.5 to 2.5 relative activity over WT GLA (SEQ ID NO: 5))

# Test: HTP-analysis of supernatants pretreated with base (MUGal hydrolysis)
# Assay type: biochemical
# Conditions: challenge at pH 7.1; activity of the variant/activity of WT GLA (SEQ ID NO: 5); yeast supernatant
# How it was run: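 GLA variants secreted from yeast INVSc1; culture supernatants pre-incubated with McIlvaine buffer pH 7.0–8.2 or 200 mM bicarbonate pH 9.1–9.7 at 37° C. for 1–18 h. Residual activity: MUGal (4 mM stock) hydrolysis at pH 4.3–4.8, 37° C., 30–180 min, carbonate quench; fluorescence Ex 355/Em 448 nm.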
row,Molecule,Relative Activity of GLA Variants After Challenge at pH 7.1
1,B1,++ (++ = >1.5 to 2.5 relative activity over WT GLA (SEQ ID NO: 5))
2,B2,++ (++ = >1.5 to 2.5 relative activity over WT GLA (SEQ ID NO: 5))
3,B3,++ (++ = >1.5 to 2.5 relative activity over WT GLA (SEQ ID NO: 5))
4,B4,++ (++ = >1.5 to 2.5 relative activity over WT GLA (SEQ ID NO: 5))
5,B5,+ (+ = 0.5 to 1.5 relative activity over WT GLA (SEQ ID NO: 5))
6,B6,+ (+ = 0.5 to 1.5 relative activity over WT GLA (SEQ ID NO: 5))
7,B7,+ (+ = 0.5 to 1.5 relative activity over WT GLA (SEQ ID NO: 5))
8,B8,++ (++ = >1.5 to 2.5 relative activity over WT GLA (SEQ ID NO: 5))
9,B9,+ (+ = 0.5 to 1.5 relative activity over WT GLA (SEQ ID NO: 5))
10,B10,++ (++ = >1.5 to 2.5 relative activity over WT GLA (SEQ ID NO: 5))
11,B11,++ (++ = >1.5 to 2.5 relative activity over WT GLA (SEQ ID NO: 5))
12,B12,++ (++ = >1.5 to 2.5 relative activity over WT GLA (SEQ ID NO: 5))
13,B13,+ (+ = 0.5 to 1.5 relative activity over WT GLA (SEQ ID NO: 5))
14,B14,++ (++ = >1.5 to 2.5 relative activity over WT GLA (SEQ ID NO: 5))
15,B15,++ (++ = >1.5 to 2.5 relative activity over WT GLA (SEQ ID NO: 5))
16,B16,++ (++ = >1.5 to 2.5 relative activity over WT GLA (SEQ ID NO: 5))
